Data as given in patent publication US20130323786A1.

Assays:
[1] = biological target: human Fc receptor CD16-GST fusion protein (human) (UniProt P08637); test: ALPHA competition assay: test antibody competes with biotinylated wild-type IgG1 (m7) for the receptor-GST fusion; panel title huCD16a V
[2] = biological target: human Fc receptor CD64-GST fusion protein (human) (UniProt P12314); test: ALPHA competition assay: test antibody competes with biotinylated wild-type IgG1 (m7) for the receptor-GST fusion; panel title huCD64 [continued) D]
human Fc receptor CD64-GST fusion protein (human), sequence (P12314 16-292 limits assumed): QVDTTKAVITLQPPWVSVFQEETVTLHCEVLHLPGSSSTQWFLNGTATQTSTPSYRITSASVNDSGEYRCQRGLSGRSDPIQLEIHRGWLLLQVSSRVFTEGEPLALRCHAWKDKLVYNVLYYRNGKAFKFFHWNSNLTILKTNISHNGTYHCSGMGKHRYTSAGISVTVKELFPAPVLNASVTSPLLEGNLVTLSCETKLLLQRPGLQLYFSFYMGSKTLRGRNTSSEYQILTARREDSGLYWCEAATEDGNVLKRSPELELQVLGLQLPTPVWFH

LINGO-1 (human) = LINGO-1 (human) (UniProt Q96FE5); test: Cell bridging assay; fit of an essentially flat control curve (see non_binding); the axis on the sheet has no unit, µg/mL is from paragraph 391

human Fc receptor CD16-GST fusion protein (human), sequence (P08637 17-208): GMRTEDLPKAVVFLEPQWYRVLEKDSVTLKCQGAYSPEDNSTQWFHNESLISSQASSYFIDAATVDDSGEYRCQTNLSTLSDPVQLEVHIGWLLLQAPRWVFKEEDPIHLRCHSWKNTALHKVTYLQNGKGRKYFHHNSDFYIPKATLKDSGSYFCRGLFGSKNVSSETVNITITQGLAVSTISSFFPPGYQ

Substance | IC50 [1] [µg/mL] | IC50 [2] [µg/mL] | C (midpoint parameter of the printed 4-parameter fit) (LINGO-1 (human)) [µg/mL]
agly 5c8 T299A (JF) (antibody) | 62 | 25 | 
huIgG1 (antibody) |  |  | 3.55
